The values that follow come from patent publication US20040203016.

Series [1] has as its system R recombinase. To be noted: in vitro resolution between RS sites, recombinants.
Series [2] has as its system R recombinase. The experiment in a line: cell_activity. To be noted: in vivo resolution after 4 h in LB+IPTG (3% after 1 h).

Like-named read-outs stand apart in the source and are kept apart here.

As to RS site, the activity was 30% in the series with R recombinase [1] and 15% in the series on R recombinase [2].
